In publication PMC3157743, “An Examination by Site-Directed Mutagenesis of Putative Key Residues in the Determination of Coenzyme Specificity in Clostridial NAD^+-Dependent Glutamate Dehydrogenase” (Enzyme Research, 2011):

Columns and labels:
Test in all cases: initial rates, A340 decrease or fluorescence
Format in all cases: biochemical, [Clostridium] symbiosum
Conditions in all cases: 20 mM 2-oxoglutarate, 100 mM NH4Cl, 0.1 M potassium phosphate pH 7.0, 25 °C
[1] = system: T1, NC(=O)C1=CN([C@@H]2O[C@H](COP(=O)(O)OP(=O)(O)OC[C@H]3O[C@@H](n4cnc5c(N)ncnc54)[C@H](O)[C@@H]3O)[C@@H](O)[C@H]2O)C=CC1
T1 construct: full-length recombinant wild-type gdh in ptac85, expressed in E. coli, purified on Remazol Red Sepharose; no tag mentioned
From the text: (§1) initial rates, A340 decrease or fluorescence on Clostridium symbiosum NAD^+-specific GDH (CsGDH)

[2] = system: T2, NC(=O)C1=CN([C@@H]2O[C@H](COP(=O)(O)OP(=O)(O)OC[C@H]3O[C@@H](n4cnc5c(N)ncnc54)[C@H](OP(=O)(O)O)[C@@H]3O)[C@@H](O)[C@H]2O)C=CC1
T2 construct: full-length recombinant wild-type gdh in ptac85, expressed in E. coli, purified on Remazol Red Sepharose; no tag mentioned
From the text: as §1

[3] = substrate: NC(=O)C1=CN([C@@H]2O[C@H](COP(=O)(O)OP(=O)(O)OC[C@H]3O[C@@H](n4cnc5c(N)ncnc54)[C@H](O)[C@@H]3O)[C@@H](O)[C@H]2O)C=CC1
From the text: as §1

[4] = substrate: NC(=O)C1=CN([C@@H]2O[C@H](COP(=O)(O)OP(=O)(O)OC[C@H]3O[C@@H](n4cnc5c(N)ncnc54)[C@H](OP(=O)(O)O)[C@@H]3O)[C@@H](O)[C@H]2O)C=CC1
From the text: as §1

Row | Molecule | Km [1] | kcat [1] | kcat/Km [1] | Km [2] | kcat [2] | kcat/Km [2] | Km [3] | kcat [3] | kcat/Km [3] | Km [4] | kcat [4] | kcat/Km [4]
1 | Clostridium symbiosum NAD^+-specific GDH (CsGDH) ([Clostridium] symbiosum; A243G) | 25 ± 1 µM | 65.1 ± 1.6 s⁻¹ | 2.6e+06 M⁻¹ s⁻¹ | 386 ± 50 µM | 1.87 ± 0.01 s⁻¹ | 4840 M⁻¹ s⁻¹ | – | – | – | – | – | –
2 | Clostridium symbiosum NAD^+-specific GDH (CsGDH) ([Clostridium] symbiosum; D264K) | 23 ± 2 µM | 80 ± 2.5 s⁻¹ | 3.48e+06 M⁻¹ s⁻¹ | 107 ± 20 µM | 26.3 ± 0.35 s⁻¹ | 246000 M⁻¹ s⁻¹ | – | – | – | – | – | –
3 | Clostridium symbiosum NAD^+-specific GDH (CsGDH) ([Clostridium] symbiosum; F239S) | 40 ± 3 µM | 139 ± 5 s⁻¹ | 3.48e+06 M⁻¹ s⁻¹ | 230 ± 50 µM | 11.1 ± 0.21 s⁻¹ | 48300 M⁻¹ s⁻¹ | – | – | – | – | – | –
4 | Clostridium symbiosum NAD^+-specific GDH (CsGDH) ([Clostridium] symbiosum; F239S/P263S) | 35 ± 10 µM | 105 ± 4 s⁻¹ | 3e+06 M⁻¹ s⁻¹ | 330 ± 20 µM | 83.3 ± 3.5 s⁻¹ | 252000 M⁻¹ s⁻¹ | – | – | – | – | – | –
5 | Clostridium symbiosum NAD^+-specific GDH (CsGDH) ([Clostridium] symbiosum; P263S) | 47 ± 103 µM | 160 ± 8 s⁻¹ | 3.4e+06 M⁻¹ s⁻¹ | 110 ± 10 µM | 62.5 ± 1.6 s⁻¹ | 568000 M⁻¹ s⁻¹ | – | – | – | – | – | –
6 | Clostridium symbiosum NAD^+-specific GDH (CsGDH) ([Clostridium] symbiosum) (protein, full-length recombinant wild-type gdh in ptac85, expressed in E. coli, purified on Remazol Red Sepharose; no tag mentioned) SKYVDRVIAEVEKKYADEPEFVQTVEEVLSSLGPVVDAHPEYEEVALLERMVIPERVIEFRVPWEDDNGKVHVNTGYRVQFNGAIGPYKGGLRFAPSVNLSIMKFLGFEQAFKDSLTTLPMGGAKGGSDFDPNGKSDREVMRFCQAFMTELYRHIGPDIDVPAGDLGVGAREIGYMYGQYRKIVGGFYNGVLTGKARSFGGSLVRPEATGYGSVYYVEAVMKHENDTLVGKTVALAGFGNVAWGAAKKLAELGAKAVTLSGPDGYIYDPEGITTEEKINYMLEMRASGRNKVQDYADKFGVQFFPGEKPWGQKVDIIMPCATQNDVDLEQAKKIVANNVKYYIEVANMPTTNEALRFLMQQPNMVVAPSKAVNAGGVLVSGFEMSQNSERLSWTAEEVDSKLHQVMTDIHDGSAAAAERYGLGYNLVAGANIVGFQKIADAMMAQGIAW | – | – | – | – | – | – | 20 ± 1 µM | 130.2 ± 3.1 s⁻¹ | 6.5e+06 M⁻¹ s⁻¹ | 90 ± 11 µM | 2.87 ± 0.11 s⁻¹ | 31900 M⁻¹ s⁻¹
